{"source": "paper PMC3742746", "about": "“A Novel TetR Family Transcriptional Regulator, SAV576, Negatively Controls Avermectin Biosynthesis in Streptomyces avermitilis”", "binders": {"B1": {"name": "probe 1m (dsDNA)", "DNA 1": "TGAAGCGAATTCGAAGCTTGAAACGGGGCGCTGCCGTACCGGC", "DNA 2": "GCCGGTACGGCAGCGCCCCGTTTCAAGCTTCGAATTCGCTTCA"}, "B2": {"name": "probe 6m (dsDNA)", "DNA 1": "AGTCGCGAATTCCAAGCTTGTACCAGCGCCCGCGGCACTGCGG", "DNA 2": "CCGCAGTGCCGCGGGCGCTGGTACAAGCTTGGAATTCGCGACT"}, "B3": {"name": "probe 2 (dsDNA)", "DNA 1": "CCCAGGTCTGCCGATTGAGTTTCCATACGTCGTATGGTACTAC", "DNA 2": "GTAGTACCATACGACGTATGGAAACTCAATCGGCAGACCTGGG"}, "B4": {"name": "probe 6 (dsDNA)", "DNA 1": "AGTCGCCATACGCTGTACGGTACCAGCGCCCGCGGCACTGCGG", "DNA 2": "CCGCAGTGCCGCGGGCGCTGGTACCGTACAGCGTATGGCGACT"}, "B5": {"name": "probe 2m (dsDNA)", "DNA 1": "CCCAGGTCTGCCGATTGAGTTTCGAATTCTAAGCTTGTACTAC", "DNA 2": "GTAGTACAAGCTTAGAATTCGAAACTCAATCGGCAGACCTGGG"}}, "data": [{"biological_target": "T1, His6-SAV576 (TetR family regulator) (Streptomyces avermitilis ATCC31267, UniProt Q82QD4 1-218)", "T1 sequence": "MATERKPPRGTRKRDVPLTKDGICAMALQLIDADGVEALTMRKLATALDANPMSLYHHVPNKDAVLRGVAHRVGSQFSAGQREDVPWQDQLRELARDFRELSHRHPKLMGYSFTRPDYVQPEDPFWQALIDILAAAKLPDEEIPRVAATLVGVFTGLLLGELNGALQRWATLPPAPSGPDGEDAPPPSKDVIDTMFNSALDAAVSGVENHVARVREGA", "experiment": "EMSA; EMSA: Roche DIG Gel Shift Kit binding buffer (composition not stated), 0.3 nM probe, 1 µg poly[d(I-C)] in 20 µl, 25°C 30 min, 5% PAGE 0.5x TBE; footprinting: 400 ng DNA in 50 µl, 25°C 30 min, DNase I at 37°C", "conditions": "protein: recombinant; tags: His6 (pET-28a); chain copies: 2; label: 3' DIG; blunt", "values": [{"binder": "B1", "binding result": "no binding"}, {"binder": "B2", "binding result": "no binding"}, {"binder": "B3", "binding result": "binds"}, {"binder": "B4", "binding result": "binds"}, {"binder": "B5", "binding result": "no binding"}]}]}
